Target: cytochrome c (UniProt P62894)
Conditions: Cy3 fluorescence quenching, hyperbolic fit; cytochrome c source for this assay not stated

cytochrome c, sequence (P62894 2-105): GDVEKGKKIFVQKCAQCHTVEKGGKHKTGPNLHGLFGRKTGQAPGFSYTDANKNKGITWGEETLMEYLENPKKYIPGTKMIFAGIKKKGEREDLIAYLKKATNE

tRNACys 5'-Cy3
Kd: 3.5 µM

Reference: US20120252718
